Source: publication PMC9765618, “PML Body Component Sp100A Is a Cytosolic Responder to IFN and Activator of Antiviral ISGs” (mBio, 2022)

Biological target: T1, bacterially purified His-tagged hemagglutinin (HA)-PKM2 (human, UniProt P14618 1-531)
T1 construct: pyruvate kinase 2 (PKM2), human; also called His-HA-PKM2
Experiment: pull-down
Settings: both partners purified

T1 sequence (P14618 whole entry): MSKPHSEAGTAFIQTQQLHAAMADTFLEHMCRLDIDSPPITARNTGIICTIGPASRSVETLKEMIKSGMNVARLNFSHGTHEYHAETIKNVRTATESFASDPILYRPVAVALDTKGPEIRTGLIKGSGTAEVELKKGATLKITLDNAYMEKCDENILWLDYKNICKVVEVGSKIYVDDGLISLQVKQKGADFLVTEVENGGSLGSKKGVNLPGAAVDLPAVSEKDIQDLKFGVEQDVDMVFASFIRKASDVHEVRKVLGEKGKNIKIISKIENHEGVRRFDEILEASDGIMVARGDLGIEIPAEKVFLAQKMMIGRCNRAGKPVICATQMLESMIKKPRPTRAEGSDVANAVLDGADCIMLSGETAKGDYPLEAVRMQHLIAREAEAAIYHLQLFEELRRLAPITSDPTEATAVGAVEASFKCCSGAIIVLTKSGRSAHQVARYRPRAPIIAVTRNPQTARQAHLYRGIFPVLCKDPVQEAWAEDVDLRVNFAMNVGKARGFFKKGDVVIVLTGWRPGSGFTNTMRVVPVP

B1: bacterially purified GST-tagged Sp100A (natural protein)
chain: not shown
notes: Sp100A, isoform A of human Sp100; also called GST-Sp100A
binding result: binds
